Measured values: patent US12552834 (MIT, dated 2026)

B1: LPP Minimal peptide (peptide)
peptide: MAGGLNDIFEAQKIEWHEDTGGSSHHHHHHGSGSGSDSEVNQEAKPEVKPEVKPETHINLKVSDGSSEIFFKIKKTTPLRRLMEAFAKRQGKEMDSLTFLYDGIEIQADQTPEDLDMEDNDIIEAHREQIGGSGSGGDFLPPPPPPLGGGSGSGGGSGSFPPPPPL
modifications: biotinylated (BAP tag)
notes: Engineered variant, tested as a SUMO fusion
B2: LPP FP4 1 peptide (peptide)
peptide: MAGGLNDIFEAQKIEWHEDTGGSSHHHHHHGSGSGSDSEVNQEAKPEVKPEVKPETHINLKVSDGSSEIFFKIKKTTPLRRLMEAFAKRQGKEMDSLTFLYDGIEIQADQTPEDLDMEDNDIIEAHREQIGGSGSGKQPGGEGDFLPPPPPPLDDSSALPSISGN
modifications: biotinylated (BAP tag)
notes: Truncation of the LPP 36mer that keeps the first FP4 motif, tested as a SUMO fusion
B3: LPP FP4 2 peptide (peptide)
peptide: MAGGLNDIFEAQKIEWHEDTGGSSHHHHHHGSGSGSDSEVNQEAKPEVKPEVKPETHINLKVSDGSSEIFFKIKKTTPLRRLMEAFAKRQGKEMDSLTFLYDGIEIQADQTPEDLDMEDNDIIEAHREQIGGSGSGPPLDDSSALPSISGNFPPPPPL
modifications: biotinylated (BAP tag)
notes: Truncation of the LPP 36mer that keeps the second FP4 motif, tested as a SUMO fusion
B4: LPP Duplicated peptide (peptide)
peptide: MAGGLNDIFEAQKIEWHEDTGGSSHHHHHHGSGSGSDSEVNQEAKPEVKPEVKPETHINLKVSDGSSEIFFKIKKTTPLRRLMEAFAKRQGKEMDSLTFLYDGIEIQADQTPEDLDMEDNDIIEAHREQIGGSGSGKQPGGEGDFLPPPPPPLDDSSALPSISGNDDSSALPSISGNFPPPPPL
modifications: biotinylated (BAP tag)
notes: as for B1
B5: Minimum General peptide (peptide)
peptide: MAGGLNDIFEAQKIEWHEDTGGSSHHHHHHGSGSGSDSEVNQEAKPEVKPEVKPETHINLKVSDGSSEIFFKIKKTTPLRRLMEAFAKRQGKEMDSLTFLYDGIEIQADQTPEDLDMEDNDIIEAHREQIGGSGSGDFLPPPPGGGGGGSGSGGGSGSFPPPPGG
modifications: biotinylated (BAP tag)
notes: Engineered peptide, tested as a SUMO fusion
B6: NHSL1 FP4 1 peptide (peptide)
peptide: MAGGLNDIFEAQKIEWHEDTGGSSHHHHHHGSGSGSDSEVNQEAKPEVKPEVKPETHINLKVSDGSSEIFFKIKKTTPLRRLMEAFAKRQGKEMDSLTFLYDGIEIQADQTPEDLDMEDNDIIEAHREQIGGSGSGADRSPFLPPPPPVTDCSQGSPLPHSPV
modifications: biotinylated (BAP tag)
notes: Truncation of the NHSL1 36mer that keeps the first FP4 motif, tested as a SUMO fusion
B7: NHSL1 FP4 2 peptide (peptide)
peptide: MAGGLNDIFEAQKIEWHEDTGGSSHHHHHHGSGSGSDSEVNQEAKPEVKPEVKPETHINLKVSDGSSEIFFKIKKTTPLRRLMEAFAKRQGKEMDSLTFLYDGIEIQADQTPEDLDMEDNDIIEAHREQIGGSGSGPVTDCSQGSPLPHSPVFPPPPPEAL
modifications: biotinylated (BAP tag)
notes: Truncation of the NHSL1 36mer that keeps the second FP4 motif, tested as a SUMO fusion
B8: NHSL1 Duplicated peptide (peptide)
peptide: MAGGLNDIFEAQKIEWHEDTGGSSHHHHHHGSGSGSDSEVNQEAKPEVKPEVKPETHINLKVSDGSSEIFFKIKKTTPLRRLMEAFAKRQGKEMDSLTFLYDGIEIQADQTPEDLDMEDNDIIEAHREQIGGSGSGADRSPFLPPPPPVTDCSQGSPLPHSPVPVTDCSQGSPLPHSPVFPPPPPEAL
modifications: biotinylated (BAP tag)
notes: as for B1
B9: SHROOM3 36-mer peptide (peptide)
peptide: MAGGLNDIFEAQKIEWHEDTGGSSHHHHHHGSGSGSDSEVNQEAKPEVKPEVKPETHINLKVSDGSSEIFFKIKKTTPLRRLMEAFAKRQGKEMDSLTFLYDGIEIQADQTPEDLDMEDNDIIEAHREQIGGSGSGVYSMDDFPPPPPHTVCEAQLDSEDPEGPRPSFNKLS
modifications: biotinylated (BAP tag)
notes: Tested as a biotinylated BAP-6xHis-SUMO-peptide fusion
B10: ABI3 36-mer peptide (peptide)
peptide: MAGGLNDIFEAQKIEWHEDTGGSSHHHHHHGSGSGSDSEVNQEAKPEVKPEVKPETHINLKVSDGSSEIFFKIKKTTPLRRLMEAFAKRQGKEMDSLTFLYDGIEIQADQTPEDLDMEDNDIIEAHREQIGGSGSGSPPPPDEELPLPLDLPPPPPLDGDELGLPPPPPGFG
modifications: biotinylated (BAP tag)
notes: as for B9
B11: KIAA1522 36-mer peptide (peptide)
peptide: MAGGLNDIFEAQKIEWHEDTGGSSHHHHHHGSGSGSDSEVNQEAKPEVKPEVKPETHINLKVSDGSSEIFFKIKKTTPLRRLMEAFAKRQGKEMDSLTFLYDGIEIQADQTPEDLDMEDNDIIEAHREQIGGSGSGPPAPEEQDLSMADFPPPEEAFFSVASPEPAGPSGSP
modifications: biotinylated (BAP tag)
notes: Tested as a biotinylated BAP-6xHis-SUMO-peptide fusion; also called KIAAA1522
B12: FBLIM1 36-mer peptide (peptide)
peptide: MAGGLNDIFEAQKIEWHEDTGGSSHHHHHHGSGSGSDSEVNQEAKPEVKPEVKPETHINLKVSDGSSEIFFKIKKTTPLRRLMEAFAKRQGKEMDSLTFLYDGIEIQADQTPEDLDMEDNDIIEAHREQIGGSGSGPPVLDGEDVLPDLDLLPPPPPPPPVLLPSEEEAPAP
modifications: biotinylated (BAP tag)
notes: as for B9
B13: TNK2 36-mer peptide (peptide)
peptide: MAGGLNDIFEAQKIEWHEDTGGSSHHHHHHGSGSGSDSEVNQEAKPEVKPEVKPETHINLKVSDGSSEIFFKIKKTTPLRRLMEAFAKRQGKEMDSLTFLYDGIEIQADQTPEDLDMEDNDIIEAHREQIGGSGSGTPVVDWDARPLPPPPAYDDVAQDEDDFEICSINSTL
modifications: biotinylated (BAP tag)
notes: as for B9
B14: TJAP1 36-mer peptide (peptide)
peptide: MAGGLNDIFEAQKIEWHEDTGGSSHHHHHHGSGSGSDSEVNQEAKPEVKPEVKPETHINLKVSDGSSEIFFKIKKTTPLRRLMEAFAKRQGKEMDSLTFLYDGIEIQADQTPEDLDMEDNDIIEAHREQIGGSGSGPEEELPLPAFEKLNPYPTPSPPHPLYPGRRVIEFSE
modifications: biotinylated (BAP tag)
notes: as for B9
B15: FYB1 36-mer peptide (peptide)
peptide: MAGGLNDIFEAQKIEWHEDTGGSSHHHHHHGSGSGSDSEVNQEAKPEVKPEVKPETHINLKVSDGSSEIFFKIKKTTPLRRLMEAFAKRQGKEMDSLTFLYDGIEIQADQTPEDLDMEDNDIIEAHREQIGGSGSGSGSGGIFPPPPDDDIYDGIEEEDADDGFPAPPKQLD
modifications: biotinylated (BAP tag)
notes: as for B9
B16: NUTM2E 36-mer peptide (peptide)
peptide: MAGGLNDIFEAQKIEWHEDTGGSSHHHHHHGSGSGSDSEVNQEAKPEVKPEVKPETHINLKVSDGSSEIFFKIKKTTPLRRLMEAFAKRQGKEMDSLTFLYDGIEIQADQTPEDLDMEDNDIIEAHREQIGGSGSGVVPVMAAQVVGGTQACEGGWSQGLPLPPPPPPAAQL
modifications: biotinylated (BAP tag)
notes: as for B9
B17: FHOD1 peptide (peptide)
peptide: MAGGLNDIFEAQKIEWHEDTGGSSHHHHHHGSGSGSDSEVNQEAKPEVKPEVKPETHINLKVSDGSSEIFFKIKKTTPLRRLMEAFAKRQGKEMDSLTFLYDGIEIQADQTPEDLDMEDNDIIEAHREQIGGSGSGSVPPPPPLPPPPPIKGPFPPPPPLPLAAPLPHSVPD
modifications: biotinylated (BAP tag)
notes: as for B9
B18: SYNPO2 36-mer peptide (peptide)
peptide: MAGGLNDIFEAQKIEWHEDTGGSSHHHHHHGSGSGSDSEVNQEAKPEVKPEVKPETHINLKVSDGSSEIFFKIKKTTPLRRLMEAFAKRQGKEMDSLTFLYDGIEIQADQTPEDLDMEDNDIIEAHREQIGGSGSGKSPIADFPAPPPYSAVTPPPDAFSRGVSSPIAGPAQ
modifications: biotinylated (BAP tag)
notes: as for B9
B19: ABI1 a peptide (peptide)
peptide: MAGGLNDIFEAQKIEWHEDTGGSSHHHHHHGSGSGSDSEVNQEAKPEVKPEVKPETHINLKVSDGSSEIFFKIKKTTPLRRLMEAFAKRQGKEMDSLTFLYDGIEIQADQTPEDLDMEDNDIIEAHREQIGGSGSGFDDFPPPPPPPPVDYED
modifications: biotinylated (BAP tag)
notes: ABI1 truncation, tested as a SUMO fusion

These binders were tested against T1, ENAH EVH1 domain (monomeric, wild type) (human, UniProt Q03173 1-111 (mouse entry)) (assay: BLI).
T1 construct: ENAH residue numbers in the text count from the Met at position 25 of this entry; also called ENAH EVH1 WT; Mena EVH1 WT
T1 sequence (Q03173 other isoform, or with tags, fused parts or gaps limits assumed): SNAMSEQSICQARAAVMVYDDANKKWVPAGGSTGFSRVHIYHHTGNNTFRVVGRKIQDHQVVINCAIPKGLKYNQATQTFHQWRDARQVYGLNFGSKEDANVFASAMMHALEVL
Description: (§1) All BLI experiments were performed with 2 replicates on an Octet Red96 instrument (ForteBio). […] The loaded tips were immersed in a solution of ENAH EVH1 domain at a relevant dilution series in BLI buffer at an orbital shake speed of 1000 rpm and run until the binding signal plateaued. ENAH-bound tips were subsequently placed into BLI buffer only for dissociation and run until the binding signal plateaued. K_D values were obtained through steady state analysis. […] The association phases were then fit to a one-phase binding model in Prism and the equilibrium steady-state binding signal values from that fit were plotted against ENAH concentration and fit to a single-site specific binding model in Prism to obtain dissociation constants. Errors reported are the standard deviation of two replicates.

Question: Which “fold reduction in affinity relative to the LPP 36-mer” value does the source give for B1 here?
Answer: The value was roughly 4 fold.

The binders below were run against T1, ENAH EVH1 domain (monomeric, wild type) (assay: BLI, steady state; SUMO-peptide immobilised, EVH1 monomer in solution).
Description: as §1

Question: B1 was tested. Which Kd did it give?
Answer: Its Kd is 15.8 µM.

Question: How did the Kd turn out when B2 was run?
Answer: The Kd was 12.4 µM.

Question: How did the Kd turn out when B3 was run?
Answer: The Kd was 28.3 µM.

Question: B4 was tested. Which Kd did it give?
Answer: Its Kd is 6.66 µM.

Question: Which Kd does the source give for B5 here?
Answer: Its Kd is 92.6 µM.

Question: For B6, which Kd is on record?
Answer: The Kd was 48.7 µM.

Question: B7 was tested. Which Kd did it give?
Answer: Its Kd is 24.4 µM.

Question: Which Kd does the source give for B8 here?
Answer: Its Kd is 18.4 µM.

The binders below were run against T2, ENAH EVH1 domain with Arg47 mutated to Ala (human, UniProt Q03173 1-111 (mouse entry)) in the same assay as above.
T2 construct: also called ENAH R47A; ENAH EVH1 R47A
T2 sequence (Q03173 other isoform, or with tags, fused parts or gaps limits assumed, stated change not applied): as the sequence (Q03173 other isoform, or with tags, fused parts or gaps limits assumed) above, with R50A counted along it
Description: as §1

Question: B1 was tested. Which Kd did it give?
Answer: Its Kd is 124 µM.

Question: B2 was tested. Which Kd did it give?
Answer: The Kd was 61.3 µM.

Question: B3 was tested. Which Kd did it give?
Answer: Its Kd is 75.2 µM.

Question: B4 was tested. Which Kd did it give?
Answer: The Kd was 54.2 µM.

Question: How did the Kd turn out when B5 was run?
Answer: Its Kd is 86.9 µM.

Question: With B6 as the binder, how does the Kd read?
Answer: Its Kd is 99.1 µM.

Question: Which Kd does the source give for B7 here?
Answer: Its Kd is 51 µM.

Question: For B8, which Kd is on record?
Answer: The Kd was 70 µM.

Target: T1, ENAH EVH1 domain (monomeric, wild type)
Assay: as above
Remark: another data set of the same source
Description: as §1

Question: How did the Kd turn out when B9 was run?
Answer: The Kd was 9.3 µM.

Question: For B10, which Kd is on record?
Answer: Its Kd is 13.6 µM.

Question: For B11, which Kd is on record?
Answer: Its Kd is 14 µM.

Question: How did the Kd turn out when B12 was run?
Answer: The Kd was 16 µM.

Question: With B13 as the binder, how does the Kd read?
Answer: The Kd was 21.2 µM.

Question: B14 was tested. Which Kd did it give?
Answer: The Kd was 23.9 µM.

Question: With B15 as the binder, how does the Kd read?
Answer: Its Kd is 24.3 µM.

Question: Which Kd does the source give for B16 here?
Answer: Its Kd is 33.9 µM.

Question: How did the Kd turn out when B17 was run?
Answer: Its Kd is 50.4 µM.

Question: Which Kd does the source give for B18 here?
Answer: Its Kd is 52.1 µM.

Target: T1, ENAH EVH1 domain (monomeric, wild type)
Assay: as above
Remark: another data set of the same source
Description: as §1

Question: Which Kd does the source give for B19 here?
Answer: The Kd was 5.21 µM.
